# Measurements from IntAct's records for PubMed 29039417.
# B1: BBSome complex member BBS4 (Homo sapiens), Q96RK4 (parent)
# chain: MAEERVATRTQFPVSTESQKPRQKKAPEFPILEKQNWLIHLHYIRKDYEACKAVIKEQLQETQGLCEYAIYVQALIFRLEGNIQESLELFQTCAVLSPQSADNLKQVARSLFLLGKHKAAIEVYNEAAKLNQKDWEISHNLGVCYIYLKQFNKAQDQLHNALNLNRHDLTYIMLGKIHLLEGDLDKAIEVYKKAVEFSPENTELLTTLGLLYLQLGIYQKAFEHLGNALTYDPTNYKAILAAGSMMQTHGDFDVALTKYRVVACAVPESPPLWNNIGMCFFGKKKYVAAISCLKRANYLAPFDWKILYNLGLVHLTMQQYASAFHFLSAAINFQPKMGELYMLLAVALTNLEDIENAKRAYAEAVHLDKCNPLVNLNYAVLLYNQGEKKNALAQYQEMEKKVSLLKDNSSLEFDSEMVEMAQKLGAALQVGEALVWTKPVKDPKSKHQTTSTSKPASFQQPLGSNQALGQAMSSAAAYRTLPSGAGGTSQFTKPPSLPLEPEPAVESSPTETSEQIREK
# partner: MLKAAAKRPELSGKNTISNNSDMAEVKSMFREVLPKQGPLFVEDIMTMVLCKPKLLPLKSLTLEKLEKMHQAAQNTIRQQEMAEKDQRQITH
# Variants of: B1
# Conditions: with bbip1_human BBIP1, A8MTZ0
row,Variant,effect of a mutation on the interaction
1,MAEERVATRTQFPVSTESQKPRQKKAPEFPILEKQNWLIHLHYIRKDYEACKAVIKEQLQETQGLCEYAIYVQALIFRLEGNIQESLELFQTCAVLSPQSADNLKQVARSLFLLGKHKAAIEVYNEAAKLNQKDWEISHNLGVCYIYLKQFNKAQDQLHNALNLNRHDLTYIMLGKIHLLEGDLDKAIEVYKKAVEFSPENTELLTTLGLLYLQLGIYQKAFEHLGNALTYDPTNYKAILAAGSMMQTHGDFDVALTKYRVVACAVPESPPLWNNIGMCFFGKKKYVAAISCLKRANYLAPFDWKILYNLGLVHLTMQQYASAFHFLSAAINFQPKMGELYMLLAVALTNLEDIENAKRAYAEAVHLDKCNPLVNLNYAVLLYNQGEKKNALAQYQEMEKKVSLLKDNSSLEFDSEMKEMAQKLGAALQVGEALVWTKPVKDPKSKHQTTSTSKPASFQQPLGSNQALGQAMSSAAAYRTLPSGAGGTSQFTKPPSLPLEPEPAVESSPTETSEQIREK [V418K],with no effect
2,MAEERVATRTQFPVSTESQKPRQKKAPEFPILEKQNWLIHLHYIRKDYEACKAVIKEQLQETQGLCEYAIYVQALIFRLEGNIQESLELFQTCAVLSPQSADNLKQVARSLFLLGKHKAAIEVYNEAAKLNQKDWEISHNLGVCYIYLKQFNKAQDQLHNALNLNRHDLTYIMLGKIHLLEGDLDKAIEVYKKAVEFSPENTELLTTLGLLYLQLGIYQKAFEHLGNALTYDPTNYKAILAAGSMMQTHGDFDVALTKYRVVACAVPESPPLWNNIGMCFFGKKKYVAAISCLKRANYLAPFDWKILYNKGLVHLTMQQYASAFHFLSAAINFQPKMGELYMLLAVALTNLEDIENAKRAYAEAVHLDKCNPLVNLNYAVLLYNQGEKKNALAQYQEMEKKVSLLKDNSSLEFDSEMVEMAQKLGAALQVGEALVWTKPVKDPKSKHQTTSTSKPASFQQPLGSNQALGQAMSSAAAYRTLPSGAGGTSQFTKPPSLPLEPEPAVESSPTETSEQIREK [L310K],with no effect
3,MAEERVATRTQFPVSTESQKPRQKKAPEFPILEKQNWLIHLHYIRKDYEACKAVIKEQLQETQGLCEYAIYVQALIFRLEGNIQESLELFQTCAVLSPQSADNLKQVARSLFLLGKHKAAIEVYNEAAKLNQKDWEISHNLGVCYIYLKQFNKAQDQLHNALNLNRHDLTYIMLGKIHLLEGDLDKAIEVYKKAVEFSPENTELLTTLGLLYLQLGIYQKAFEHLGNALTYDPTNYKAILAAGSMMQTHGDFDVALTKYRVVACAVPESPPLWNNIGMCFFGKKKYVAAISCLKRANYLAPFDWKILYNLGLVHLTMQQYASAFHFLSAAINFQPKMGELYMLLAVALTNLEDIENAKRAYAEAVHLDKCNPLVNLNYAVLLYNQGGKKNALAQYQEMEKKVSLLKDNSSLEFDSEMVEMAQKLGAALQVGEALVWTKPVKDPKSKHQTTSTSKPASFQQPLGSNQALGQAMSSAAAYRTLPSGAGGTSQFTKPPSLPLEPEPAVESSPTETSEQIREK [E387G],disrupting interaction strength
4,MAEERVATRTQFPVSTESQKPRQKKAPEFPILEKQNWLIHLHYIRKDYEACKAVIKEQLQETQGLCEYAIYVQALIFRLEGNIQESLELFQTCAVLSPQSADNLKQVARSLFLLGKHKAAIEVYNEAAKLNQKDWEISHNLGVCYIYLKQFNKAQDQLHNALNLNRHDLTYIMLGKIHLLEGDLDKAIEVYKKAVEFSPENTELLTTLGLLYLQLGIYQKAFEHLGNALTYDPTNYKAILAAGSMMQTHGDFDVALTKYRVVACAVPESPPLWNNIGMCFFGKKKYVAAISCLKRANYLAPFDWKILYNLGLVHLTMQQYASAFHFLSAAINFQPKMGELYMLLAVALTNLEDIENAKRAYAEAVHLDKCNPLVNLNYAVLLYNQGEKKNALAQYQEMEKKVSLLKDNSSLEFDSEMVEMAQKLGAALQVGEALVWTKPVKDPKAKHQTTSTSKPASFQQPLGSNQALGQAMSSAAAYRTLPSGAGGTSQFTKPPSLPLEPEPAVESSPTETSEQIREK [S445A],with no effect
5,MAEERVATRTQFPVSTESQKPRQKKAPEFPILEKQNWLIHLHYIRKDYEACKAVIKEQLQETQGLCEYAIYVQALIFRLEGNIQESLELFQTCAVLSPQSADNLKQVARSLFLLGKHKAAIEVYNEAAKLNQKDWEISHNLGVCYIYLKQFNKAQDQLHNALNLNRHDLTYIMLGKIHLLEGDLDKAIEVYKKAVEFSPENTELLTTLGLLYLQLGIYQKAFEHLGNALTYDPTNYKAILAAGSMMQTHGDFDVALTKYRVVACAVPESPPLWNNIGMCFFGKKKYVAAISCLKRANYLAPFDWKILYNLGLVHLTMQQYASAFHFLSAAINFQPKMGELYMLLAVALTNKEDIENAKRAYAEAVHLDKCNPLVNLNYAVLLYNQGEKKNALAQYQEMEKKVSLLKDNSSLEFDSEMVEMAQKLGAALQVGEALVWTKPVKDPKSKHQTTSTSKPASFQQPLGSNQALGQAMSSAAAYRTLPSGAGGTSQFTKPPSLPLEPEPAVESSPTETSEQIREK [L351K],with no effect
6,MAEERVATRTQFPVSTESQKPRQKKAPEFPILEKQNWLIHLHYIRKDYEACKAVIKEQLQETQGLCEYAIYVQALIFRLEGNIQESLELFQTCAVLSPQSADNLKQVARSLFLLGKHKAAIEVYNEAAKLNQKDWEISHNLGVCYIYLKQFNKAQDQLHNALNLNRHDLTYIMLGKIHLLEGDLDKAIEVYKKAVEFSPENTELLTTLGLLYLQLGIYQKAFEHLGNALTYDPTNYKAILAAGSMMQTHGDFDVALTKYRVVACAVPESPPLWNNIGMCFFGKKKYVAAISCLKRANYLAPFDWKILYNLGLVHLTMQQYASAFHFLSAAINFQPKMGELYMLLAVALTNLEDIENAKRAYAEAVHLDKCNPLVNLNYAVLLYNQGEKKNALAQYQEMEKKVSLLKDNSSLEFDSEMVEMAQKLGAALQVGEALVWTKPVKKPKSKHQTTSTSKPASFQQPLGSNQALGQAMSSAAAYRTLPSGAGGTSQFTKPPSLPLEPEPAVESSPTETSEQIREK [D442K],with no effect
7,MAEERVATRTQFPVSTESQKPRQKKAPEFPILEKQNWLIHLHYIRKDYEACKAVIKEQLQETQGLCEYAIYVQALIFRLEGNIQESLELFQTCAVLSPQSADNLKQVARSLFLLGKHKAAIEVYNEAAKLNQKDWEISHNLGVCYIYLKQFNKAQDQLHNALNLNRHDLTYIMLGKIHLLEGDLDKAIEVYKKAVEFSPENTELLTTLGLLYLQLGIYQKAFEHLGNALTYDPTNYKAILAAGSMMQTHGDFDVALTKYRVVACAVPESPPLWNNIGMCFFGKKKYVAAISCLKRANYLAPFDWKILYNLGLVHLTMQQYASAFHFLSAAINFQPKMGELYMLLAVALTNLEDIENAKRAYAEAVHLDKCNPLVNLNYAVLLYNQGEKKNALAQYQEMEKKVSLLKDNSSLEFDSEMVEMAQKLGAALQVGEALVWTKPVKDPKSKHQTTSTSKPASFQQPLGSNQALGQAMSSAAAYRTLPSGAGGTSQFTEPPSLPLEPEPAVESSPTETSEQIREK [K493E],with no effect
8,MAEERVATRTQFPVSTESQKPRQKKAPEFPILEKQNWLIHLHYIRKDYEACKAVIKEQLQETQGLCEYAIYVQALIFRLEGNIQESLELFQTCAVLSPQSADNLKQVARSLFLLGKHKAAIEVYNEAAKLNQKDWEISHNLGVCYIYLKQFNKAQDQLHNALNLNRHDLTYIMLGKIHLLEGDLDKAIEVYKKAVEFSPENTELLTTLGLLYLQLGIYQKAFEHLGNALTYDPTNYKAILAAGSMMQTHGDFDVALTKYRVVACAVPESPPLWNNIGMCFFGKKKYVAAISCLKRANYLAPFDWKILYNLGLVHLTMQQYASAFHFLSAAINFQPKMGELYMLLAVALTNLEDIENAKRAYAEAVHLDKCNPLVNLNYAVLLYNQGEKKNALAQYQEMEKKVSLLKDNSSLEFDSEMVEMAQKLGAALQVGEALVWTKPVKDPKSKHQTTSTSKPASFQQPLGSNQALGQAMSSAAAYRTLPSGKGGTSQFTKPPSLPLEPEPAVESSPTETSEQIREK [A485K],with no effect
9,MAEERVATRTQFPVSTESQKPRQKKAPEFPILEKQNWLIHLHYIRKDYEACKAVIKEQLQETQGLCEYAIYVQALIFRLEGNIQESLELFQTCAVLSPQSADNLKQVARSLFLLGKHKAAIEVYNEAAKLNQKDWEISHNLGVCYIYLKQFNKAQDQLHNALNLNRHDLTYIMLGKIHLLEGDLDKAIEVYKKAVEFSPENTELLTTLGLLYLQLGIYQKAFEHLGNALTYDPTNYKAILAAGSMMQTHGDFDVALTKYRVVACAVPESPPLWNNIGMCFFGKKKYVAAISCLKRANYLAPFDWKILYNLGLVHLTMQQYASAFHFLSAAINFQPKMGELYMLLAVALTNLEDIENAKRAYAEAVHLDKCNPLVNLNYAVLLYNQGEKKNALAQYQEMEKKVSLLKDNSSLEFDSEMVEMAQKLGAALQVGEALVWTKPVKDPKSKHQTTSTSKPASFQQPLGSNQALGQAMSSAAAYRTLPSGAGGTSQFTKPPALPLEPEPAVESSPTETSEQIREK [S496A],with no effect
10,MAEERVATRTQFPVSTESQKPRQKKAPEFPILEKQNWLIHLHYIRKDYEACKAVIKEQLQETQGLCEYAIYVQALIFRLEGNIQESLELFQTCAVLSPQSADNLKQVARSLFLLGKHKAAIEVYNEAAKLNQKDWEISHNLGVCYIYLKQFNKAQDQLHNALNLNRHDLTYIMLGKIHLLEGDLDKAIEVYKKAVEFSPENTELLTTLGLLYLQLGIYQKAFEHLGNALTYDPTNYKAILAAGSMMQTHGDFDVALTKYRVVACAVPESPPLWNNIGMCFFGKKKYVAAISCLKRANYLAPFDWKILYNLGLVHLTMQQYASAFHFLSAAINFQPKMGELYMLLAVALTNLEDIENAKRAYAEAVHLDKCNPLVNLNYAVLLYNQGEKKNALAQYQEMEKKVSLLKDNSSLEFDSEMVEMAQKLGAALQVGEALVWTKPVKDPKSKHQTTSTSKPASFQQPLGSNAALGQAMSSAAAYRTLPSGAGGTSQFTKPPSLPLEPEPAVESSPTETSEQIREK [Q466A],with no effect
11,MAEERVATRTQFPVSTESQKPRQKKAPEFPILEKQNWLIHLHYIRKDYEACKAVIKEQLQETQGLCEYAIYVQALIFRLEGNIQESLELFQTCAVLSPQSADNLKQVARSLFLLGKHKAAIEVYNEAAKLNQKDWEISHNLGVCYIYLKQFNKAQDQLHNALNLNRHDLTYIMLGKIHLLEGDLDKAIEVYKKAVEFSPENTELLTTLGLLYLQLGIYQKAFEHLGNALTYDPTNYKAILAAGSMMQTHGDFDVALTKYRVVACAVPESPPLWNNIGMCFFGKKKYVAAISCLKRANYLAPFDWKILYNLGLVHLTMQQYASAFHFLSAAINFQPKMGELYMLLAVALTNLEDIENAKRACAEAVHLDKCNPLVNLNYAVLLYNQGEKKNALAQYQEMEKKVSLLKDNSSLEFDSEMVEMAQKLGAALQVGEALVWTKPVKDPKSKHQTTSTSKPASFQQPLGSNQALGQAMSSAAAYRTLPSGAGGTSQFTKPPSLPLEPEPAVESSPTETSEQIREK [Y361C],disrupting interaction strength
12,MAEERVATRTQFPVSTESQKPRQKKAPEFPILEKQNWLIHLHYIRKDYEACKAVIKEQLQETQGLCEYAIYVQALIFRLEGNIQESLELFQTCAVLSPQSADNLKQVARSLFLLGKHKAAIEVYNEAAKLNQKDWEISHNLGVCYIYLKQFNKAQDQLHNALNLNRHDLTYIMLGKIHLLEGDLDKAIEVYKKAVEFSPENTELLTTLGLLYLQLGIYQKAFEHLGNALTYDPTNYKAILAAGSMMQTHGDFDVALTKYRVVACAVPESPPLWNNIGMCFFGKKKYVAAISCLKRANYLAPFDWKILYNLGLVHLTMQQYASAFHFLSAAINFQPKMGELYMLLAVALTNLEDIENAKRAYAEAVHLDKCNPLVNLNYAVLLYNQGEKKNALAQYQEMEKKVSLLKDNSSLEFDSEMVEMAQKLGAALQVGEAEVWTKPVKDPKSKHQTTSTSKPASFQQPLGSNQALGQAMSSAAAYRTLPSGAGGTSQFTKPPSLPLEPEPAVESSPTETSEQIREK [L434E],with no effect
